Experimental findings from US20220017627A1 (Bristol-Myers Squibb, published 2022) are described below.

Where a chain is given by its changes, count along the chain named. Numbers in names are those of the source.

Sequences and labels used below:
T1: hIL-7R (Example 11) (human, UniProt P16871 21-239)
T1 construct: Called full length hIL-7R for the mRNA display and hIL-7R for the Biacore runs; also called full length hIL-7R; human IL-7R
T1 chain: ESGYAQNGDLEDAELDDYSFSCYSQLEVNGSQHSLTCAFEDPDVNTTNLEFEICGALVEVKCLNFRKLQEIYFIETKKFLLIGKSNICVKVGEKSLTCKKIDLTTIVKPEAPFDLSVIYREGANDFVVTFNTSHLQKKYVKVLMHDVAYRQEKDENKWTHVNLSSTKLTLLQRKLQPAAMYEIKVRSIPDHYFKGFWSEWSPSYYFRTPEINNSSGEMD

B1: 18B1 LC F91A (antibody, human IgG1, kappa, V domains shown)
VH: EVQLVESGGGLVQPGRSLRLSCAASGFTFDDHAMHWVRQAPGKGLEWVSGISWNSRGIGYADSVKGRFTIFRDNAKNSLYLQMNSLRAEDTALYYCAKDEYSRGYYVLDVWGQGTTVTVSS
VL: AIQLTQSPSSLSASVGDRVTITCRASQGISSALAWYQQKPGKAPKLLIYDASSLESGVPSRFSGSGSGTDFTLTISSLQPEDFATYYCQQANSYPLWITFGQGTRLEIKR
B2: 18B1 LC N92A (antibody, human IgG1, kappa, V domains shown)
VH: B1 VH
VL: B1 VL with A91F, N92A
B3: 18B1 LC S30A (antibody, human IgG1, kappa, V domains shown)
VH: B1 VH
VL: B1 VL with S30A, A91F
B4: 18B1 LC Q90A (antibody, human IgG1, kappa, V domains shown)
VH: B1 VH
VL: B1 VL with Q90A, A91F
B5: 18B1 LC T97A (antibody, V domains shown)
VH: B1 VH
VL: B1 VL with A91F, T99A
notes: copies: 2 + 2
B6: 18B1 LC L33A (antibody, human IgG1, kappa, V domains shown)
VH: B1 VH
VL: B1 VL with L33A, A91F
B7: 18B1 LC Q27A (antibody, human IgG1, kappa, V domains shown)
VH: B1 VH
VL: B1 VL with Q27A, A91F
B8: 18B1 LC S26A (antibody, human IgG1, kappa, V domains shown)
VH: B1 VH
VL: B1 VL with S26A, A91F
B9: 18B1 LC S93A (antibody, human IgG1, kappa, V domains shown)
VH: B1 VH
VL: B1 VL with A91F, S93A
B10: 18B1 LC P95A (antibody, human IgG1, kappa, V domains shown)
VH: B1 VH
VL: B1 VL with A91F, P95A
B11: 18B1 LC I29A (antibody, human IgG1, kappa, V domains shown)
VH: B1 VH
VL: B1 VL with I29A, A91F
B12: 18B1 LC S31A (antibody, human IgG1, kappa, V domains shown)
VH: B1 VH
VL: B1 VL with S31A, A91F
B13: 18B1 LC G28A (antibody, human IgG1, kappa, V domains shown)
VH: B1 VH
VL: B1 VL with G28A, A91F
B14: 18B1 LC R24A (antibody, human IgG1, kappa, V domains shown)
VH: B1 VH
VL: B1 VL with R24A, A91F
B15: 18B1 LC D50A (antibody, human IgG1, kappa, V domains shown)
VH: B1 VH
VL: B1 VL with D50A, A91F
B16: 18B1 LC S52A (antibody, human IgG1, kappa, V domains shown)
VH: B1 VH
VL: B1 VL with S52A, A91F
B17: 18B1 LC S56A (antibody, human IgG1, kappa, V domains shown)
VH: B1 VH
VL: B1 VL with S56A, A91F
B18: 18B1 LC S53A (antibody, human IgG1, kappa, V domains shown)
VH: B1 VH
VL: B1 VL with S53A, A91F
B19: 18B1 LC E55A (antibody, human IgG1, kappa, V domains shown)
VH: B1 VH
VL: B1 VL with E55A, A91F
B20: 18B1 LC L54A (antibody, human IgG1, kappa, V domains shown)
VH: B1 VH
VL: B1 VL with L54A, A91F

One test addresses T1, hIL-7R (Example 11). Briefly: SPR (Biacore), ratio KD of parent 18B1 to KD of variant. From the text: (§1) Affinity (KD) of each variant binding to hIL-7R was obtained using this approach, and compared against the enrichment ratio (ER) obtained through NGS heat map analysis for the same variant.
On to B1, for which the “KD Relative to 18B1” value turned out to be 0.19.
Still for that read-out and setting: to B2 belongs 0.63; to B3, 0.88; to B4, 1.46.
Turning to B5, the “KD Relative to 18B1” value amounted to 1.16.
Take B6: the “KD Relative to 18B1” value is 1.08.
The same measure, in the same setting: to B7 belongs 1.06; to B8, 1.28; to B9, 1.86.
The same measure, in the same setting: to B10 belongs 0.08; to B11, 1.46; to B12, 0.74.
Regarding B13, the “KD Relative to 18B1” value came to 0.85.
On the same count and under the same terms, to B14 belongs 1.15.

A further test addresses T1, hIL-7R (Example 11). Briefly: SPR (Biacore), ratio KD of parent 18B1 to KD of variant [cont'd].
Text: as §1
In general terms: In SPR one partner is held on a chip, and binding of the other changes the refractive index at the surface.
Consider B15, for which the “KD Relative to 18B1” value turned out to be 0.77.
Consider B16, for which the “KD Relative to 18B1” value came to 0.93.
Still for that read-out and setting: to B17 belongs 0.98; to B18, 0.79; to B19, 0.57.
For B20, the “KD Relative to 18B1” value came to 0.93.

The target in the next test is T1, hIL-7R (Example 11). Briefly: NGS enrichment ratio of the mutation in the scFv library selected at 0.2 nM hIL-7R. From the text:
(§2) All six CDRs of the antibody were mutated, with each position in the CDR mutated to all possible amino acids at that position. […] FIGS. 17A and 17B provide a schematic of the overall process.
Take B1: the “0.2 nM NGS” value was found to be 0.05.
The same measure, in the same setting: to B2 belongs 0.34; to B3, 0.7.
As to B4, the “0.2 nM NGS” value worked out at 1.63.
Regarding B5, the “0.2 nM NGS” value amounted to 0.92.
With B6, the “0.2 nM NGS” value came out at 1.05.
In the case of B7, the “0.2 nM NGS” value worked out at 1.27.
On to B8, for which the “0.2 nM NGS” value was found to be 1.32.
Take B9: the “0.2 nM NGS” value is 1.84.
On the same count and under the same terms, to B10 belongs 0.03.
On the same count and under the same terms, to B11 belongs 1.44; to B12, 0.6.
For the molecule B13, the “0.2 nM NGS” value was determined as 1.05.
On to B14, for which the “0.2 nM NGS” value was 0.91.

For the next test, the target named is T1, hIL-7R (Example 11). Description: NGS enrichment ratio of the mutation in the scFv library selected at 0.2 nM hIL-7R [cont'd].
Text: as §2
As for B15, the “0.2 nM NGS” value is 0.3.
The same measure, in the same setting: to B16 belongs 1.09; to B17, 0.96.
For B18, the “0.2 nM NGS” value is 1.07.
On to B19, for which the “0.2 nM NGS” value came to 0.23.
Same read-out and setting: to B20 belongs 0.99.

Another test has as its target T1, hIL-7R (Example 11). Briefly: SPR (Biacore), ratio KD of parent 18B1 to KD of variant; row repeated at the end of the table [cont'd].
Text: as §1
On to B14, for which the “KD Relative to 18B1” value was determined as 1.15.
